In one experiment the target is HLA-B*15:01. Briefly: IEDB peptide-MHC binding, purified MHC/direct/fluorescence; filed as Kd, often an IC50 or EC50 that approximates it; ≥ and ≤ were set here for values at or beyond the usual limits of such assays.
A further experiment deals with HLA-B*35:01. Described as above.
Another experiment deals with HLA-B*40:01. The description is as above.
The target of the next experiment is HLA-B*27:05. The experiment is described as above.
The next experiment concerns the target HLA-B*44:02. Described as above.
The next experiment deals with HLA-B*46:01. Described as above.
The target of another experiment is HLA-A*11:01. The description is as above.
The target of the next experiment is HLA-A*01:01. The experiment is described as above.
The target of a further experiment is HLA-A*31:01. The experiment is described as above.
The target of a further experiment is HLA-A*26:01. The experiment is described as above.
The target in a further experiment is HLA-B*15:02. Described as above.
In the next experiment the target is HLA-B*08:01. Described as above.
In a further experiment the target is HLA-A*69:01. Described as above.
The target in a further experiment is HLA-A*03:01. The experiment is described as above.
The next experiment concerns the target HLA-B*07:02. The description is as above.
A further experiment has as its target HLA-A*02:01. Described as above.
The next experiment concerns the target HLA-B*58:01. The experiment is described as above.
A further experiment concerns the target HLA-A*02:06. Described as above. To be noted: source organism: Influenza A virus(A/swine/Shandong/fNY/2003(H9N2)).
The target in a further experiment is HLA-A*02:12. The description is as above. To be noted: source organism: Influenza A virus(A/swine/Shandong/fNY/2003(H9N2)).
A further experiment concerns the target HLA-A*02:03. Described as above. To be noted: source organism: Influenza A virus(A/swine/Shandong/fNY/2003(H9N2)).
For a further experiment, the target named is HLA-A*02:11. Described as above. To be noted: source organism: Influenza A virus(A/swine/Shandong/fNY/2003(H9N2)).
The target of another experiment is HLA-A*24:02. Described as above. The following applies: source organism: Influenza A virus (A/Viet Nam/HN/2004(H5N1)).
For another experiment, the target named is HLA-A*02:19. The experiment is described as above. The following applies: source organism: Influenza A virus(A/swine/Shandong/fNY/2003(H9N2)).
The target of another experiment is HLA-A*02:16. The experiment is described as above. The following applies: source organism: Influenza A virus(A/swine/Shandong/fNY/2003(H9N2)).
For another experiment, the target named is HLA-B*48:01. Briefly: IEDB peptide-MHC binding, purified MHC/competitive/fluorescence; filed as Kd, often an IC50 or EC50 that approximates it; ≥ and ≤ were set here for values at or beyond the usual limits of such assays.
Setting [1] is: source organism: Vibrio vulnificus.
[2] abbreviates: source organism: Yersinia pestis.
[3] abbreviates: source organism: Yersinia pestis Antiqua.
Setting [4] is: source organism: Influenza A virus (A/Puerto Rico/8/34/Mount Sinai(H1N1)).
Where [5] appears, read: source organism: Influenza A virus (A/Viet Nam/HN/2004(H5N1)).
Where [6] appears, read: source organism: Escherichia coli.
Setting [7] is: source organism: Escherichia coli O157:H7.

Drawing on the Immune Epitope Database (IEDB), this text covers Kd for six sequences.

Bounds are passed on as bounds.

One may read the Kd as the concentration at which binding is half-saturated. For the sequence LLTQSNAGF, the Kd with HLA-B*15:01 (setting [1]) is 146 nM; with HLA-B*35:01 (setting [1]), 345 nM; in the experiment with HLA-B*40:01 (setting [1]), no less than 20 µM; with HLA-B*27:05 (setting [1]), no less than 20 µM; with HLA-B*44:02 (setting [1]), no less than 20 µM; with HLA-B*46:01 (setting [1]) it was no less than 20 µM. Further, the Kd was no less than 20 µM with HLA-A*11:01 (setting [1]); no less than 20 µM with HLA-A*01:01 (setting [1]); no less than 20 µM with HLA-A*31:01 (setting [1]); no less than 20 µM with HLA-A*26:01 (setting [1]); 49 nM in the experiment with HLA-B*15:02 (source organism: Vibrio vulnificus CMCP6); no less than 20 µM with HLA-B*08:01 (setting [1]). Moreover, the Kd with HLA-A*69:01 (setting [1]), with HLA-A*03:01 (setting [1]) and with HLA-B*07:02 (setting [1]) was no less than 20 µM in each case.
Regarding FQLYSDLAH, the Kd was 68.2 nM in the experiment with HLA-B*15:01 (setting [2]); 860 nM with HLA-B*35:01 (setting [2]); no less than 20 µM with HLA-B*40:01 (setting [3]); no less than 20 µM in the experiment with HLA-B*44:02 (setting [3]); 2.27 µM with HLA-B*46:01 (setting [3]); no less than 20 µM in the experiment with HLA-A*11:01 (setting [3]). The Kd with HLA-A*01:01 (setting [3]) is no less than 20 µM; with HLA-A*31:01 (setting [3]), no less than 20 µM; with HLA-A*26:01 (setting [3]), no less than 20 µM; with HLA-A*02:01 (setting [2]) it was 1910 nM; with HLA-B*15:02 (setting [3]), 25.9 nM; with HLA-B*58:01 (setting [3]), no less than 20 µM. Further, the Kd in the experiment with HLA-B*08:01 (setting [3]), with HLA-A*69:01 (setting [3]), with HLA-A*03:01 (setting [3]) and with HLA-B*07:02 (setting [3]) was no less than 20 µM throughout.
Consider VSPLAVTWW, for which the Kd was 2200 nM with HLA-B*15:01 (setting [4]); no less than 20 µM with HLA-A*02:06; no less than 20 µM with HLA-B*40:01 (setting [5]); 0.161 µM with HLA-B*27:05 (setting [4]); no less than 20 µM with HLA-B*44:02 (setting [5]); no less than 20 µM with HLA-B*46:01 (setting [5]). The Kd with HLA-A*01:01 (setting [5]) was no less than 20 µM; with HLA-A*02:01 (setting [4]), 1080 nM; with HLA-A*02:12, 3.54 µM; with HLA-A*02:03 it was 29 nM; in the experiment with HLA-A*02:11 it was 32 nM; with HLA-B*08:01 (setting [5]), no less than 20 µM. Also, the Kd with HLA-A*24:02 is no less than 20 µM; with HLA-A*69:01 (setting [5]), no less than 20 µM; in the experiment with HLA-A*02:19, no less than 20 µM; with HLA-A*03:01 (setting [4]) it was 0.173 µM; with HLA-A*02:16, 131 nM; with HLA-B*07:02 (setting [5]), no less than 20 µM.
Take YLGTPNNTY: the Kd with HLA-B*15:01 (setting [6]) is 137 nM; with HLA-B*35:01 (setting [6]), 325 nM; with HLA-B*40:01 (setting [7]), no less than 20 µM; with HLA-B*27:05 (setting [7]), no less than 20 µM; in the experiment with HLA-B*44:02 (setting [7]), no less than 20 µM; with HLA-B*46:01 (setting [7]), no less than 20 µM. Besides, the Kd in the experiment with HLA-A*11:01 (setting [7]) was no less than 20 µM; in the experiment with HLA-A*01:01 (setting [6]) it was 0.284 µM; with HLA-A*31:01 (setting [7]), no less than 20 µM; with HLA-A*26:01 (setting [7]), no less than 20 µM; with HLA-A*02:01 (setting [7]), no less than 20000 nM; with HLA-B*15:02 (setting [7]), 9.4 nM. For the same sequence, the Kd with HLA-B*58:01 (setting [7]), in the experiment with HLA-B*08:01 (setting [7]), with HLA-A*69:01 (setting [7]), in the experiment with HLA-A*03:01 (setting [7]) and with HLA-B*07:02 (setting [7]) was no less than 20 µM in each case.
In the experiment with HLA-B*48:01 (source organism: Entamoeba histolytica HM-1:IMSS), KEFNGPAML displayed a Kd of 438 nM.
In the case of RQQAIVDLL, the Kd with HLA-B*48:01 (source organism: Shigella flexneri 5 str. 8401) was determined as 153 nM.
